Experimental data: publication PMC3677924, “Biochemical and Functional Analysis of Drosophila-Sciara Chimeric Sex-Lethal Proteins”

How the values were obtained:
Settings in all cases: protein: recombinant; tags: GST; label: fluorescein (RNA labelling mix)
[1] = molecular target: T1, SX28 chimera (Drosophila melanogaster / Sciara …, UniProt Q86QM9 1-240+=LE+P19339:293-354, internal_change); test: EMSA; apparent Kd, Hill fit; error 95% CI; 20 mM Hepes pH 8.0, 0.1 M KCl, 0.5 mM EDTA, 1 mM DTT, 0.05% NP40, 20% glycerol, 3 µg yeast tRNA; 5 min on ice, then 10 min at room temperature with RNA; 5% native PAGE, 0.25x TBE
T1 sequence: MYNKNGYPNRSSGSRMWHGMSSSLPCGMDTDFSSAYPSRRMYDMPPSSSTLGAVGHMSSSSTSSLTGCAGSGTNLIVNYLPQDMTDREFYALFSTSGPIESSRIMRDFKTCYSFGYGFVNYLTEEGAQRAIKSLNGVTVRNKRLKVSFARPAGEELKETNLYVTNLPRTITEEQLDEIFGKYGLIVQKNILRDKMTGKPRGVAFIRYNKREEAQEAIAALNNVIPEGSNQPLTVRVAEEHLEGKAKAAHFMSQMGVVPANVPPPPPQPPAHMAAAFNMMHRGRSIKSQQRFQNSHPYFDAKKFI

[2] = molecular target: T2, SX64 chimera (Drosophila melanogaster / Sciara …, UniProt P19339 1-292+=LE+Q86QM9:241-287, internal_change); test: as above
T2 sequence: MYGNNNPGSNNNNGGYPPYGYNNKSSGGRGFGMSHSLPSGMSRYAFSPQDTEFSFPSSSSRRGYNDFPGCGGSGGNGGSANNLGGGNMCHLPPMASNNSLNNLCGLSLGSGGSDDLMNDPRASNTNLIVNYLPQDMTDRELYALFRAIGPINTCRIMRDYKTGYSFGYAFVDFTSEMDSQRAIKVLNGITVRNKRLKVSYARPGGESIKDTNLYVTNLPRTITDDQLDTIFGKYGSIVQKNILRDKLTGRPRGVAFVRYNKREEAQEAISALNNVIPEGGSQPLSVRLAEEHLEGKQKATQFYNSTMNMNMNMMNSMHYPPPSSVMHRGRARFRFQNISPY

[3] = molecular target: T3, SX17 chimera (Drosophila melanogaster / Sciara …, UniProt Q86QM9 1-71+=R+P19339:125-354, internal_change); test: as above
T3 sequence: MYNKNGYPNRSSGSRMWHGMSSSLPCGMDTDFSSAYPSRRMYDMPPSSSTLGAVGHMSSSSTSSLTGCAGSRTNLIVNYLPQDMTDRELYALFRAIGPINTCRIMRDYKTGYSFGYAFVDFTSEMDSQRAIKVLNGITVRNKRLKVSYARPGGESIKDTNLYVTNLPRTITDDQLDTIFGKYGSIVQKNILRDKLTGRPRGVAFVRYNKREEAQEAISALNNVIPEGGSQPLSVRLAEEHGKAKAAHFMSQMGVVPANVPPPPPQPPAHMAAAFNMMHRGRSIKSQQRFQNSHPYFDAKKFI

[4] = molecular target: T4, SX35 chimera (Drosophila melanogaster / Sciara …, UniProt P19339 1-123+=R+Q86QM9:73-287, internal_change); test: as above
T4 sequence: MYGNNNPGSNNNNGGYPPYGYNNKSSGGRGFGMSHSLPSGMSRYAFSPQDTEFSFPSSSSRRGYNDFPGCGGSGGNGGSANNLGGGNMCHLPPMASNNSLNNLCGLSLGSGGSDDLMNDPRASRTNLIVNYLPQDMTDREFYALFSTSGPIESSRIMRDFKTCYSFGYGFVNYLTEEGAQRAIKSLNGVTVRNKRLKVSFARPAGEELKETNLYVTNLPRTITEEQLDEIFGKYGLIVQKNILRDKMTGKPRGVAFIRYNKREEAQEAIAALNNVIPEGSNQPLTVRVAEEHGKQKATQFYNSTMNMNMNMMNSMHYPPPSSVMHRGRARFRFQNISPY

[5] = molecular target: T1, SX28 chimera; test: EMSA; Hill n=1; error 95% CI; 20 mM Hepes pH 8.0, 0.1 M KCl, 0.5 mM EDTA, 1 mM DTT, 0.05% NP40, 20% glycerol, 3 µg yeast tRNA; 5 min on ice, then 10 min at room temperature with RNA; 5% native PAGE, 0.25x TBE
[6] = molecular target: T2, SX64 chimera; test: as above
[7] = molecular target: T3, SX17 chimera; test: as above
[8] = molecular target: T4, SX35 chimera; test: as above

B1: single poly(U) SXL site (ssRNA)
RNA: ACAUAUUUUUUUUCACAGC
Binder B1 has a Kd [1] of 230 ± 50 µM, a Kd [2] of 180 ± 20 µM and a Kd [3] of 350 ± 50 µM. For the same binder, the Kd [4] was 230 ± 40 µM.

B2: double poly(U) SXL site (ssRNA)
RNA: CAUGAUUAUUUUUUUUUAUUUUUUUUCGGUGA
In the case of B2, the Kd [5] is reported as 3.8 ± 0.5 µM, the Kd [6] is reported as 2.3 ± 0.4 µM and the Kd [7] is reported as 2.4 ± 0.5 µM. For the same binder, the Kd [8] was 0.9 ± 0.4 µM.
